Data reported in the nanobody polyreactivity screen of Harvey et al. (2022).

Test: yeast display, Sf9 membrane polyspecificity reagent, FACS + sequencing; frameworks hold sequencing errors
In short: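 Galactose induction of a Saccharomyces cerevisiae BJ5465 synthetic nanobody display library ran 36–48 hours. The cells were then stained for 1 hour at 4 °C with 10% biotinylated, detergent-solubilized Sf9 membrane reagent, pulled down on streptavidin microbeads and FACS-sorted into low and high (top ~1%) gates on expression and reagent-binding fluorescence. Labels for polyreactivity follow the gate of origin.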
For “QVQLVESGGGLVQAGGSLRLSCAASGRIFGYYALGLSRQAPGKERELVAAINSGSRTYYADSVKGRFTISRDNAKNTVYLQMNSLKPEDTAVYYCAKVGRGNNYWGQGTQVTVSS”, the “polyreactivity (PSR sort gate)” value was “high polyreactivity”. In the case of “QVQLVESGGGLVQAGGSLRLSCAASGRIFGYYAMEWNRQAPGKERELVATITFGGGSTYYADSVKGRFTISRDKAKNTVYLQMNSLKPEDTAVSFCAAEGVHYDGDYGTGYDYWGQCTQVTVSS”, the “polyreactivity (PSR sort gate)” value is reported as “low polyreactivity”. With “QVQLVESGGGLVQAGGSLRLSCAASGRIFGYYAMGWSRPAPGKERELVATITFGGVSTYYADSVKGRFTISRDNAKNNVYLQMNSLKPEDTGVYYCAADSGYLGIYGDEYSWGQGTQVTVSS” the “polyreactivity (PSR sort gate)” value was “low polyreactivity”. With “QVQLVESGGGLVQAGGSLRLSCAASGRIFGYYAMGWYRQAPGKERELVAAIDSSGGSTTYADSVKGRFTISRDYAKNTVYLQMNSLKPEDTAVYYCNAGYALRSGPWYYYELDYWGQGTQVTVSS” the “polyreactivity (PSR sort gate)” value was “low polyreactivity”. In the case of “QVQLVESGGGLVQAGGSLRLSCAASGRIFGYYAMGWYRQAPGKERELVATIRGGGSTNYADSVKGRCTISRDNAKNTVFLQMNSLKPEDTAVYYCAKPCAKWRGFDYWGQGTQVTVSS”, the “polyreactivity (PSR sort gate)” value is reported as “low polyreactivity”. With “QVQLVESGGGLVQAGGSLRLSCAASGRIFGYYAMGWYRQAPGKEREWVAAINSGGSTNYADSVKGRFTISRDNAKNTVYLQMNSLIPEDTAVYYCAAGWRYRYFRSRNFYPYYYWGQGTQVTVSS” the “polyreactivity (PSR sort gate)” value was “high polyreactivity”. For “QVQLVESGGGLVQAGGSLRLSCAASGRIFGYYAMGWYRQAPGKEREWVAAMSTNGGTTYYAYSVKGRFTISRDNAKNTVYLQMNSLKPEDTAVYYCAATYTVPGHARYDYWGQGTQVTVSS”, the “polyreactivity (PSR sort gate)” value was “low polyreactivity”. With “QVQLVESGGGLVQAGGSLRLSCAASGRIFGYYGMGWYRQAPGNERELVAAITYRGGSTYYADSVKGRFTISRDNAKNTVYLQMNSLKPEDTVVYYCGADGYSNYRYLYDYWGQGTQVTVSS” the “polyreactivity (PSR sort gate)” value was “low polyreactivity”. With “QVQLVESGGGLVQAGGSLRLSCAASGRIFGYYMGWYRQAPGKERELVARITFRGGSTYYADSVKGRFTISRDNAKNTVYLQMNSLKPEDTAVYYCNASGKGGSTNRSDYWGQGTQVTVSW” the “polyreactivity (PSR sort gate)” value was “high polyreactivity”. For “QVQLVESGGGLVQAGGSLRLSCAASGRIFGYYTMGWYRQAPGKERELVAAITRDGGSTYYADSVKGRFTISRDNAKNTVYLQMNSLKPEDTAVDYCTAASQSRYYYWGQGTQVTVSS”, the “polyreactivity (PSR sort gate)” value was “high polyreactivity”. With “QVQLVESGGGLVQAGGSLRLSCAASGRIFGYYTMGWYRQAPGKEWEVVAGISSGGSTNYADSVKGRFTISRDNAKNTVYLQMNSLKPEDTAVYDCAAAYPHFGGYRYDYWGQGTQVTVSS” the “polyreactivity (PSR sort gate)” value was “high polyreactivity”. In the case of “QVQLVESGGGLVQAGGSLRLSCAASGRIFHFNTMGWYRQAPGKERELVAAITSSGGSTNYADSVKGRFTISRDNAKNTVYLQMNSLKPEDTAVYYCNADTGAADYFDFDYWGQGTQVTVSS”, the “polyreactivity (PSR sort gate)” value is reported as “low polyreactivity”. In the case of “QVQLVESGGGLVQAGGSLRLSCAASGRIFHLYAMGWYRQAPGKERELVATINYEGGSTYYADSVKGRFTISRDNAKDTVYLQMNSLKPEDTAVYYCAADGYQDKYYWLETWVGYWGQGTQVTVSS”, the “polyreactivity (PSR sort gate)” value is reported as “low polyreactivity”. With “QVQLVESGGGLVQAGGSLRLSCAASGRIFHPNAMGWYRQAPGKERELVAAITNSGGITYADSVKGRFTISRDNAKNTVYLQMNSLKPEDTAVYYCNTATNRFHYKYRKPYDYWGQGTQVTVSS” the “polyreactivity (PSR sort gate)” value was “low polyreactivity”. For “QVQLVESGGGLVQAGGSLRLSCAASGRIFHQYAMGWYRQAPGKERELVAAITGGGSTYYADSVKGRFTISRDNAKNTVSLQMNSLKPEDTAVYYCAAPPFGYYEVGYDSWGQGTQVTVSS”, the “polyreactivity (PSR sort gate)” value was “low polyreactivity”. With “QVQLVESGGGLVQAGGSLRLSCAASGRIFHRYDMGWDRQAPGKEREFVAAISSRGGSTYYADSVKGRVTISRDYAKNTVYLQMNSLKPEDTAVYYCAAQNGYRSGEFYYWGQGTQVTVSP” the “polyreactivity (PSR sort gate)” value was “high polyreactivity”. With “QVQLVESGGGLVQAGGSLRLSCAASGRIFHTYGMGWYRQAPGKERELVAAITWTGGSTYYADSVKGRFTISRDNAKNTVYLQMNSLKPEDTAVYYCAADYPRDIIGSMDYWGQGTQVTVSS” the “polyreactivity (PSR sort gate)” value was “low polyreactivity”. In the case of “QVQLVESGGGLVQAGGSLRLSCAASGRIFHTYGMGWYRQAPGKVRELVAAITWTGGSTYYADSVKGRFTISRDNAKNTVYLQMNSLKPEDTAVYYCNARYVYHSSFAGFDYWGQGTQVTVSS”, the “polyreactivity (PSR sort gate)” value is reported as “low polyreactivity”. In the case of “QVQLVESGGGLVQAGGSLRLSCAASGRIFHVNAMGWYRQAPGKERELVAAISTSGGRTYYADSVKGRFTISRDNAKNTVYLQLNSLKPEVTAVYYCAAVSRAPGLRYDYWGQGTQVTVSS”, the “polyreactivity (PSR sort gate)” value is reported as “high polyreactivity”. In the case of “QVQLVESGGGLVQAGGSLRLSCAASGRIFHYNAMGWYRQAPGKERELVAAISTGGSTNYADSVKGRFTISRDNAKNTVYLQMNSLKPEDTAVYYCAADHPVTYPTTKFDYWGQGTQVTVSS”, the “polyreactivity (PSR sort gate)” value is reported as “low polyreactivity”. In the case of “QVQLVESGGGLVQAGGSLRLSCAASGRIFHYYAMGWYRQAPGIERELVAAIRYSGGRTYYADSVKGRFTISRDNAKNTVYLQMNSLKPEDTAFYYCNAVPYVYKTITGDDYWGQGTQVTVSS”, the “polyreactivity (PSR sort gate)” value is reported as “high polyreactivity”. With “QVQLVESGGGLVQAGGSLRLSCAASGRIFHYYAMGWYRQAPGKEWELVAAISTSGGSTYYADSVKGRFTISRDNANNTVYIQMNSLKPEDTAVYYCAAVLPRYRRFDYWGQGTQVTVSS” the “polyreactivity (PSR sort gate)” value was “high polyreactivity”. For “QVQLVESGGGLVQAGGSLRLSCAASGRIFIGYAMGWYRQAPGKERELVAGISQRGGRTYYADSVKGRFTISRDNAKNTVYLQMNSLKPEDTAVYYCNKRFSLGYRGGYWGQGTQVTVSS”, the “polyreactivity (PSR sort gate)” value was “high polyreactivity”. In the case of “QVQLVESGGGLVQAGGSLRLSCAASGRIFINNAMGWYRQAPGKEREFVAAITSGGRTYYADSVKGRFTISRDNAKNTVYLQMNSLKPEDTAVYYCAARYYRQYTRHYGYGYWGQGTQVTVSS”, the “polyreactivity (PSR sort gate)” value is reported as “high polyreactivity”. For “QVQLVESGGGLVQAGGSLRLSCAASGRIFIPYALGWYRQAPGKERELVAAISYRGGSTYYADSVKGRFTISRDNAKNTVYLQMNSLKPEDTAVYYCANYDYWGQGTQVTVSS”, the “polyreactivity (PSR sort gate)” value was “high polyreactivity”. With “QVQLVESGGGLVQAGGSLRLSCAASGRIFIRNAMGWYRQAPGKERELVAAITQSGGSTYYADSVKGRFTISRDNAKNTVYLQMNSLKPEDTAVYYCAADGDNPYLHEEDYWGQGTQVTVSS” the “polyreactivity (PSR sort gate)” value was “high polyreactivity”. In the case of “QVQLVESGGGLVQAGGSLRLSCAASGRIFIRNAMGWYRQAPGTERELVAAITSDGITYYADSVKGRFTISRDNATNTVYLQMNSLKPEDTAVYYCAKVGGWFSNLFIPRYREYNYWGQGTQVTVSP”, the “polyreactivity (PSR sort gate)” value is reported as “low polyreactivity”. With “QVQLVESGGGLVQAGGSLRLSCAASGRIFIRNTMVWYRQAPGKERELVADISWRGGSTYYADSVKGRFTISRDNAKNTVYLEMNSLKPEDTAVYYSAAVVRSPAYDYWGQGTQVTVSS” the “polyreactivity (PSR sort gate)” value was “high polyreactivity”. In the case of “QVQLVESGGGLVQAGGSLRLSCAASGRIFIRYAMGWYRQAPGKERELVASISRNGGTTYYADSVKGRFTISRDNAQNTVYLQMNSLKPEDTAVYYCNTVHRSVDKAGYDYWGQGTQVTVSS”, the “polyreactivity (PSR sort gate)” value is reported as “high polyreactivity”. In the case of “QVQLVESGGGLVQAGGSLRLSCAASGRIFISYTMGLYRHAPGKERELVAGIDSSGTSTYYADSVKGRFTISRDNAKNTVYLQMNRLKPEDTAVYYCIVVANWKDTSTELDYWGQGTQVTVSS”, the “polyreactivity (PSR sort gate)” value is reported as “low polyreactivity”. For “QVQLVESGGGLVQAGGSLRLSCAASGRIFIYNAMGWYRQAPGKEREFVAAISSSGGSTYYADSVKGRFTISRDNAKNTVYLQMNSLKPEDTAVYYCAAGGWPYSGGLFFQPNYDYWGQGTQVTVSS”, the “polyreactivity (PSR sort gate)” value was “low polyreactivity”.
